We go through 5 proteins from US20130274441A1 (University of California, published 2013).

Substitutions are numbered along the chain they refer to.

Series [1] concerns the molecule itself. Nature of the series: Assembly column; screening of labeled lysates; self-assembly.
Experimental: For fluorescence analysis, cells were lysed by sonication in 25 mM TRIS pH 7.5, 300 mM NaCl, 8.5 mM MgCl₂, 1 mM dithiothreitol (DTT) supplemented with 1 mM phenylmethanesulfonyl fluoride, and the lysates cleared by centrifugation. […] The labeling reaction was allowed to proceed at 37° C. for 30 min, after which the labeled lysates were analyzed by native PAGE or fluorescence SEC. […] Gels were imaged fluorescently using a Fotodyne gel imaging system equipped with appropriate LEDs and filters.
Series [2] deals with the molecule itself. Put plainly: analytical ultracentrifugation c(s) distribution at 4.8 and 2.4 mg mL^-1 (FIG. 4); self-assembly.
Series [3] concerns the molecule itself. Nature of the series: Assembly column; self-assembly.
Series [4] deals with the molecule itself. Put plainly: analytical SEC of purified protein; self-assembly.

B1: T3-08, construct with peptide tag for fluorescent labeling, in labeled E. coli lysate (designed binder)
chain: MTEKEKMLAEKWYDANFDQTLINERLRAKVICFALNHTNPSATLKRKVLIDALFQTTTDNVSISIPFDTDYGWNVKLGKNVYVNTNCYFMDGGQITIGDNVFIGPNCGFYTATHPLNFHHRNEGFEKAGPIHIGSNTWFGGHVAVLPGVTIGEGSVIGAGSVVTKDIPPHSLAVGNPCKVVRKIDNDLPSETLNDETIK
modifications: peptide tag labeled with CoA-488 by AcpS
notes: also called tetrahedral design
Regarding B1, the binding result in series [1] is recorded as “binds”.

B2: O3-33 with C-terminal (His)6 tag (designed binder)
chain: MSQAIGILELTSIAAGMELGDAMLKSANVDLLVSKTISPGKFLLMLGGDIGAIQQAIETGTSQAGELLVDSLVLANIHPSVLPAISGLNSVDKRQAVGIVETWSVAACISAADRAVKGSNVTLVRVHMAFGIGGKCYMVVAGDVSDVALAVTVASSSAGAYGLLVYASLIPRPHEAMWRQMVEGLEHHHHHH
notes: eight trimers self-assemble through the designed interface to a 24-subunit octahedral cage; Derived from PDB 3N79 with 9 mutations; also called 03-33; octahedral design
Consider B2, for which the binding result in series [2] was “binds”.

B3: O3-33, construct with peptide tag for fluorescent labeling, in labeled E. coli lysate (designed binder)
chain: MSQAIGILELTSIAAGMELGDAMLKSANVDLLVSKTISPGKFLLMLGGDIGAIQQAIETGTSQAGELLVDSLVLANIHPSVLPAISGLNSVDKRQAVGIVETWSVAACISAADRAVKGSNVTLVRVHMAFGIGGKCYMVVAGDVSDVALAVTVASSSAGAYGLLVYASLIPRPHEAMWRQMVEG
modifications: peptide tag labeled with CoA-488 by AcpS
notes: also called octahedral design
Take B3: the binding result in series [1] is listed as “binds”.

B4: T3-10 with C-terminal (His)6 tag (designed binder)
chain: MTEKEKMLAEKWYDANFDQTLINERLRAKVICFALNHTNPVATMMRKVLIDALFQTTTDNVSISIPFDTDYGWNVKLGKNVYVNTNCYFMDGGQITIGDNVFIGPNCGFYTATHPLNFHHRNEGFEKAGPIHIGSNTWFGGHVAVLPGVTIGEGSVIGAGSVVTKDIPPHSLAVGNPCKVVRKIDNDLPSETLNDETIKLEHHHHHH
notes: Variant of T3-08 with 3 further mutations
On to B4, for which the binding result in series [3] is recorded as “binds”.

B5: T3-08 with C-terminal (His)6 tag (designed binder)
chain: B4 chain with V41S, M44L, M45K
notes: four trimers assemble to a 12-subunit tetrahedral cage; Derived from PDB 3FTT with 8 mutations; also called tetrahedral design
For B5, the binding result in series [4] is “binds”.
